Data from publication PMC8595662.

Legend:
[1] = biological target: AMMO1, human gH/gL-specific neutralizing antibody (recombinant IgG1) (human); assay: SPR
AMMO1 (human) = assay: SPR
Sequence of AMMO1 (human) (heavy, as listed by the source, chain 1 of 2): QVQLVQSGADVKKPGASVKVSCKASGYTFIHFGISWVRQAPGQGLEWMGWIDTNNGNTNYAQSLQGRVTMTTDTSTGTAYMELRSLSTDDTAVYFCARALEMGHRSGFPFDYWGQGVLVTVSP
Sequence of AMMO1 (human) (light, as listed by the source, chain 2 of 2): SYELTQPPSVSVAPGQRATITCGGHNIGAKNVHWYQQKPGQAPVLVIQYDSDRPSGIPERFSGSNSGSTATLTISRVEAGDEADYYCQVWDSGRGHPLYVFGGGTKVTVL

Sequence of AMMO1, human gH/gL-specific neutralizing antibody (recombinant IgG1) (human) (heavy, as listed by the source, chain 1 of 2): as the sequence (heavy, as listed by the source, chain 1 of 2) above
Sequence of AMMO1, human gH/gL-specific neutralizing antibody (recombinant IgG1) (human) (light, as listed by the source, chain 2 of 2): as the sequence (light, as listed by the source, chain 2 of 2) above

## EBV gH/gL single chain with N310A in gH (from UniProt P03231;P03212) (complex)
[1]
  Kd: 0.19 nM

## gH N310A/gL (from UniProt P03231;P03212) (complex)
AMMO1 (human)
  koff: 9.6e-05 s⁻¹
